Results from patent publication US20170052184A1.

Key:
[1] = target: C113T109N biotin labeled HCV core peptide (hepatitis C virus); test: EIA; Ab 1000 ng/mL captured on anti-mouse Fc; bt-peptide 500 ng/mL
[2] = target: 92-133 biotin labeled HCV core peptide (hepatitis C virus) (UniProt P26664); test: as above
[3] = target: Mut6T110S biotin labeled HCV core peptide (hepatitis C virus); test: EIA; Ab 31.25 ng/mL captured on anti-mouse Fc; bt-peptide 500 ng/mL
[4] = target: Mut1T110N biotin labeled HCV core peptide (hepatitis C virus); test: as above
[5] = target: C113T109N biotin labeled HCV core peptide (hepatitis C virus); test: as above
[6] = target: 92-133 biotin labeled HCV core peptide (hepatitis C virus) (UniProt P26664); test: as above
[7] = target: Mut6T110S biotin labeled HCV core peptide (hepatitis C virus); test: EIA; Ab 2000 ng/mL captured on anti-mouse Fc; bt-peptide 500 ng/mL
[8] = target: Mut1T110N biotin labeled HCV core peptide (hepatitis C virus); test: as above
[9] = target: C113T109N biotin labeled HCV core peptide (hepatitis C virus); test: as above
[10] = target: 92-133 biotin labeled HCV core peptide (hepatitis C virus) (UniProt P26664); test: as above
[11] = target: Mut6T110S biotin labeled HCV core peptide (hepatitis C virus); test: EIA; Ab 125 ng/mL captured on anti-mouse Fc; bt-peptide 500 ng/mL
[12] = target: Mut1T110N biotin labeled HCV core peptide (hepatitis C virus); test: as above
[13] = target: C113T109N biotin labeled HCV core peptide (hepatitis C virus); test: as above
[14] = target: 92-133 biotin labeled HCV core peptide (hepatitis C virus) (UniProt P26664); test: as above
[15] = target: Mut6T110S biotin labeled HCV core peptide (hepatitis C virus); test: EIA; Ab 500 ng/mL captured on anti-mouse Fc; bt-peptide 500 ng/mL
[16] = target: Mut1T110N biotin labeled HCV core peptide (hepatitis C virus); test: as above
[17] = target: C113T109N biotin labeled HCV core peptide (hepatitis C virus); test: as above
[18] = target: 92-133 biotin labeled HCV core peptide (hepatitis C virus) (UniProt P26664); test: as above

Q: Which results are given for HCV C11-3 monoclonal antibody?
A: signal at 492 nm [1]: 0.0806 OD 492 nm; signal at 492 nm [2]: 1.87 OD 492 nm; signal at 492 nm [3]: 1.54 OD 492 nm; signal at 492 nm [4]: 0.107 OD 492 nm; signal at 492 nm [5]: 0.16 OD 492 nm; signal at 492 nm [6]: 1.55 OD 492 nm; signal at 492 nm [7]: 1.73 OD 492 nm; signal at 492 nm [8]: 0.0915 OD 492 nm; signal at 492 nm [9]: 0.0707 OD 492 nm; signal at 492 nm [10]: 1.45 OD 492 nm; signal at 492 nm [11]: 2.02 OD 492 nm; signal at 492 nm [12]: 0.127 OD 492 nm; signal at 492 nm [13]: 0.147 OD 492 nm; signal at 492 nm [14]: 1.83 OD 492 nm; signal at 492 nm [15]: 2.24 OD 492 nm; signal at 492 nm [16]: 0.0765 OD 492 nm; signal at 492 nm [17]: 0.0882 OD 492 nm; signal at 492 nm [18]: 1.95 OD 492 nm
